Experimental data as given in patent US20220389118A1 (Chugai, published 2022).

T1: human FcγRIIa type R extracellular domain with C-terminal His tag (human, UniProt P12318 34-217)
T1 construct: extracellular domain; also called FcγRIIaR; FcγRIIa(R)
T1 sequence (looked up): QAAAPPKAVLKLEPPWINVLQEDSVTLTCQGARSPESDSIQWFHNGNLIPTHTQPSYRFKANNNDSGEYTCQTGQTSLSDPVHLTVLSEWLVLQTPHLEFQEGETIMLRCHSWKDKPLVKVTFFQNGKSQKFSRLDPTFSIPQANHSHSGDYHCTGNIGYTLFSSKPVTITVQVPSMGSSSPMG

T2: human FcγRIIb extracellular domain with C-terminal His tag (human, UniProt P31994 43-217)
T2 construct: extracellular domain
T2 sequence (looked up): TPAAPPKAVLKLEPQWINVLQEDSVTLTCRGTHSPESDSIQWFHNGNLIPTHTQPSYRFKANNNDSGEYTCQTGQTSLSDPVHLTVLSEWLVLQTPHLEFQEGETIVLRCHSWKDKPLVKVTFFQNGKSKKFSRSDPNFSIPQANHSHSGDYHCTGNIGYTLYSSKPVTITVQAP

T3: human FcγRIIb extracellular domain with C-terminal His tag (human, UniProt P31994 43-217)
T3 construct: extracellular domain; also called FcgRIIb
T3 sequence (looked up): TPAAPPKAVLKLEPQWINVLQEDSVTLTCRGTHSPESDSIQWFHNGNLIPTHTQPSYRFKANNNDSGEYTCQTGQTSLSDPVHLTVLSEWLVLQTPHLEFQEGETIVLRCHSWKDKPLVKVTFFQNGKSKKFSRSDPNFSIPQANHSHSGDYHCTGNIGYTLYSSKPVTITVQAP


How the values were obtained:
[1] = biological target: T4, human FcγRIa extracellular domain with C-terminal His tag (human, UniProt P12314 16-292); experiment: SPR (Biacore)
T4 construct: extracellular domain

[2] = biological target: T1, human FcγRIIa type R extracellular …; experiment: SPR (Biacore)
[3] = biological target: T2, human FcγRIIb extracellular domain with …; experiment: SPR (Biacore)
[4] = biological target: T2, human FcγRIIb extracellular domain with …; experiment: SPR (Biacore), ratio of KDs
[5] = biological target: T1, human FcγRIIa type R extracellular …; experiment: SPR (Biacore), parent IL6R-B3/IL6R-L
[6] = biological target: T2, human FcγRIIb extracellular domain with …; experiment: SPR (Biacore), parent IL6R-B3/IL6R-L
[7] = biological target: T3, human FcγRIIb extracellular domain with …; experiment: SPR (Biacore), antibody captured, FcγR as analyte

T4 sequence (P12314 16-292): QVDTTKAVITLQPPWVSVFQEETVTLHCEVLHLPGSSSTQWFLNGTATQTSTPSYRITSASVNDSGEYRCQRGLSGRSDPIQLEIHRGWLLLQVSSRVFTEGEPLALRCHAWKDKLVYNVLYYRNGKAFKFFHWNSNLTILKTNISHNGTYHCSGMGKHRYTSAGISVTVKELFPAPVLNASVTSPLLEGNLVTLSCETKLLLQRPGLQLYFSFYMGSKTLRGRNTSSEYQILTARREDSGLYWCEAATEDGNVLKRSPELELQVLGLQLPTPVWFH

| KD(IIb) of parent polypeptide/KD(IIb) of altered polypeptide [7] [fold vs IL6R-B3/IL6R-L] | Binder | also measured |
| --- | --- | --- |
|  | IL6R-BP549/IL6R-L (antibody, human IgG1, kappa, copies: 2 + 2) heavy: QVQLQESGPGLVKPSETLSLTCAVSGHSISHDHAWSWVRQPPGEGLEWIGFISYSGITNYNPSLQGRVTISRDNSKNTLYLQMNSLRAEDTAVYYCARSLARTTAMDYWGEGTLVTVSSASTKGPSVFPLAPSSKSTSGGTAALGCLVKDYFPEPVTVSWNSGALTSGVHTFPAVLQSSGLYSLSSVVTVPSSSLGTQTYICNVNHKPSNTKVDKKVEPKSCDKTHTCPPCPAPELLGDDSVFLFPPKPKDTLMISRTPEVTCVVVDVGEEDGEVKFNWYVDGVEVHNAKTKPREEQYNSTYRVVSVLTVLHQDWLNGKEYKCKVSNKALPRPIEKTISKAKGQPREPQVYTLPPSRDELTKNQVSLTCLVKGFYPSDIAVEWESNGQPENNYKTTPPVLDSDGSFFLYSKLTVDKSRWQQGNVFSCSVMHEALHNHYTQESLSLSP light: not shown | Kd [1]: 18 nM; Kd [2]: 570 nM; Kd [3]: 16 nM; KD(IIaH)/KD(IIb) [4]: 696; KD(IIaR)/KD(IIb) [4]: 35.9; KD(IIaR) parent/KD(IIaR) altered polypeptide [5]: 1.9; KD(IIb) parent/KD(IIb) altered polypeptide [6]: 196 |
| 2.1 | IL6R-2B128/IL6R-L (antibody, human IgG1, kappa, IgG1 type) heavy: QVQLQESGPGLVKPSETLSLTCAVSGHSISHDHAWSWVRQPPGEGLEWIGFISYSGITNYNPSLQGRVTISRDNSKNTLYLQMNSLRAEDTAVYYCARSLARTTAMDYWGEGTLVTVSSASTKGPSVFPLAPSSKSTSGGTAALGCLVKDYFPEPVTVSWNSGALTSGVHTFPAVLQSSGLYSLSSVVTVPSSSLGTQTYICNVNHKPSNTKVDKKVEPKSCDKTHTCPPCPAPELLGGDSVFLFPPKPKDTLMISRTPEVTCVVVDVSHEDPEVKFNWYVDGVEVHNAKTKPREEQDNSTYRVVSVLTVLHQDWLNGKEYKCKVSNKALPAPIEKTISKAKGQPREPQVYTLPPSRDELTKNQVSLTCLVKGFYPSDIAVEWESNGQPENNYKTTPPVLDSDGSFFLYSKLTVDKSRWQQGNVFSCSVMHEALHNHYTQESLSLSP light: not shown |  |
| 2.8 | IL6R-BP121/IL6R-L (antibody, human IgG1, kappa, IgG1 type) heavy: QVQLQESGPGLVKPSETLSLTCAVSGHSISHDHAWSWVRQPPGEGLEWIGFISYSGITNYNPSLQGRVTISRDNSKNTLYLQMNSLRAEDTAVYYCARSLARTTAMDYWGEGTLVTVSSASTKGPSVFPLAPSSKSTSGGTAALGCLVKDYFPEPVTVSWNSGALTSGVHTFPAVLQSSGLYSLSSVVTVPSSSLGTQTYICNVNHKPSNTKVDKKVEPKSCDKTHTCPPCPAPELLGGDSVFLFPPKPKDTLMISRTPEVTCVVVDVSHEDPEVKFNWYVDGVEVHNAKTKPREEQYNSTYRVVSVLTVLHQDWLNGKEYKCKVSNQALPAPIEKTISKAKGQPREPQVYTLPPSRDELTKNQVSLTCLVKGFYPSDIAVEWESNGQPENNYKTTPPVLDSDGSFFLYSKLTVDKSRWQQGNVFSCSVMHEALHNHYTQESLSLSP light: not shown |  |
| 3.3 | IL6R-2B002/IL6R-L (antibody, human IgG1, kappa, IgG1 type) heavy: QVQLQESGPGLVKPSETLSLTCAVSGHSISHDHAWSWVRQPPGEGLEWIGFISYSGITNYNPSLQGRVTISRDNSKNTLYLQMNSLRAEDTAVYYCARSLARTTAMDYWGEGTLVTVSSASTKGPSVFPLAPSSKSTSGGTAALGCLVKDYFPEPVTVSWNSGALTSGVHTFPAVLQSSGLYSLSSVVTVPSSSLGTQTYICNVNHKPSNTKVDKKVEPKSCDKTHTCPPCPAPDLLGGDSVFLFPPKPKDTLMISRTPEVTCVVVDVSHEDPEVKFNWYVDGVEVHNAKTKPREEQYNSTYRVVSVLTVLHQDWLNGKEYKCKVSNKALPAPIEKTISKAKGQPREPQVYTLPPSRDELTKNQVSLTCLVKGFYPSDIAVEWESNGQPENNYKTTPPVLDSDGSFFLYSKLTVDKSRWQQGNVFSCSVMHEALHNHYTQESLSLSP light: not shown |  |
| 9.7 | IL6R-BP112/IL6R-L (antibody, human IgG1, kappa, IgG1 type) heavy: QVQLQESGPGLVKPSETLSLTCAVSGHSISHDHAWSWVRQPPGEGLEWIGFISYSGITNYNPSLQGRVTISRDNSKNTLYLQMNSLRAEDTAVYYCARSLARTTAMDYWGEGTLVTVSSASTKGPSVFPLAPSSKSTSGGTAALGCLVKDYFPEPVTVSWNSGALTSGVHTFPAVLQSSGLYSLSSVVTVPSSSLGTQTYICNVNHKPSNTKVDKKVEPKSCDKTHTCPPCPAPELLGGDSVFLFPPKPKDTLMISRTPEVTCVVVDVSHEDGEVKFNWYVDGVEVHNAKTKPREEQYNSTYRVVSVLTVLHQDWLNGKEYKCKVSNKALPAPIEKTISKAKGQPREPQVYTLPPSRDELTKNQVSLTCLVKGFYPSDIAVEWESNGQPENNYKTTPPVLDSDGSFFLYSKLTVDKSRWQQGNVFSCSVMHEALHNHYTQESLSLSP light: not shown |  |
| 2.6 | IL6R-BP142/IL6R-L (antibody, human IgG1, kappa, IgG1 type) heavy: QVQLQESGPGLVKPSETLSLTCAVSGHSISHDHAWSWVRQPPGEGLEWIGFISYSGITNYNPSLQGRVTISRDNSKNTLYLQMNSLRAEDTAVYYCARSLARTTAMDYWGEGTLVTVSSASTKGPSVFPLAPSSKSTSGGTAALGCLVKDYFPEPVTVSWNSGALTSGVHTFPAVLQSSGLYSLSSVVTVPSSSLGTQTYICNVNHKPSNTKVDKKVEPKSCDKTHTCPPCPAPELLGGDSVFLFPPKPKDTLMISRTPEVTCVVVDVSHEDPEVKFNWYVDGVEVHNAKTKPREEQYNSTYRVVSVLTVLHQDWLNGKEYKCKVSNNALPAPIEKTISKAKGQPREPQVYTLPPSRDELTKNQVSLTCLVKGFYPSDIAVEWESNGQPENNYKTTPPVLDSDGSFFLYSKLTVDKSRWQQGNVFSCSVMHEALHNHYTQESLSLSP light: not shown |  |
| 2.6 | IL6R-2B169/IL6R-L (antibody, human IgG1, kappa, IgG1 type) heavy: QVQLQESGPGLVKPSETLSLTCAVSGHSISHDHAWSWVRQPPGEGLEWIGFISYSGITNYNPSLQGRVTISRDNSKNTLYLQMNSLRAEDTAVYYCARSLARTTAMDYWGEGTLVTVSSASTKGPSVFPLAPSSKSTSGGTAALGCLVKDYFPEPVTVSWNSGALTSGVHTFPAVLQSSGLYSLSSVVTVPSSSLGTQTYICNVNHKPSNTKVDKKVEPKSCDKTHTCPPCPAPELLGGDSVFLFPPKPKDTLMISRTPEVTCVVVDVSHEDPEVKFNWYVDGVEVHNAKTKPREEQYNSTYRVVSVLTVLHQDWLNGKEYKCKISNKALPAPIEKTISKAKGQPREPQVYTLPPSRDELTKNQVSLTCLVKGFYPSDIAVEWESNGQPENNYKTTPPVLDSDGSFFLYSKLTVDKSRWQQGNVFSCSVMHEALHNHYTQESLSLSP light: not shown |  |
| 2.1 | IL6R-BP912/IL6R-L (antibody, human IgG1, kappa, IgG1 type) heavy: QVQLQESGPGLVKPSETLSLTCAVSGHSISHDHAWSWVRQPPGEGLEWIGFISYSGITNYNPSLQGRVTISRDNSKNTLYLQMNSLRAEDTAVYYCARSLARTTAMDYWGEGTLVTVSSASTKGPSVFPLAPSSKSTSGGTAALGCLVKDYFPEPVTVSWNSGALTSGVHTFPAVLQSSGLYSLSSVVTVPSSSLGTQTYICNVNHKPSNTKVDKKVEPKSCDKTHTCPPCPAPELLGGDSVFLFPPKPKDTLMISRTPEVTCVVVDVSHEDPEVKFNWYVDGVEVHNAKTKPREEQYNSTYRVVSVLTVLHQDWLNGKEYKCKVSNKALPRPIEKTISKAKGQPREPQVYTLPPSRDELTKNQVSLTCLVKGFYPSDIAVEWESNGQPENNYKTTPPVLDSDGSFFLYSKLTVDKSRWQQGNVFSCSVMHEALHNHYTQESLSLSP light: not shown |  |
| 2.1 | IL6R-BP110/IL6R-L (antibody, human IgG1, kappa, IgG1 type) heavy: QVQLQESGPGLVKPSETLSLTCAVSGHSISHDHAWSWVRQPPGEGLEWIGFISYSGITNYNPSLQGRVTISRDNSKNTLYLQMNSLRAEDTAVYYCARSLARTTAMDYWGEGTLVTVSSASTKGPSVFPLAPSSKSTSGGTAALGCLVKDYFPEPVTVSWNSGALTSGVHTFPAVLQSSGLYSLSSVVTVPSSSLGTQTYICNVNHKPSNTKVDKKVEPKSCDKTHTCPPCPAPELLGGDSVFLFPPKPKDTLMISRTPEVTCVVVDVSNEDPEVKFNWYVDGVEVHNAKTKPREEQYNSTYRVVSVLTVLHQDWLNGKEYKCKVSNKALPAPIEKTISKAKGQPREPQVYTLPPSRDELTKNQVSLTCLVKGFYPSDIAVEWESNGQPENNYKTTPPVLDSDGSFFLYSKLTVDKSRWQQGNVFSCSVMHEALHNHYTQESLSLSP light: not shown |  |
| 3.9 | IL6R-BP136/IL6R-L (antibody, human IgG1, kappa, IgG1 type) heavy: QVQLQESGPGLVKPSETLSLTCAVSGHSISHDHAWSWVRQPPGEGLEWIGFISYSGITNYNPSLQGRVTISRDNSKNTLYLQMNSLRAEDTAVYYCARSLARTTAMDYWGEGTLVTVSSASTKGPSVFPLAPSSKSTSGGTAALGCLVKDYFPEPVTVSWNSGALTSGVHTFPAVLQSSGLYSLSSVVTVPSSSLGTQTYICNVNHKPSNTKVDKKVEPKSCDKTHTCPPCPAPELLGGDSVFLFPPKPKDTLMISRTPEVTCVVVDVSHEDPEVKFNWYVDGVEVHNAKTKPREEQYNSTYRVVSVLTVLHQDWLNGKEYKCKVSNAALPAPIEKTISKAKGQPREPQVYTLPPSRDELTKNQVSLTCLVKGFYPSDIAVEWESNGQPENNYKTTPPVLDSDGSFFLYSKLTVDKSRWQQGNVFSCSVMHEALHNHYTQESLSLSP light: not shown | Kd [7]: 800 nM |
